Assay results from paper PMC10985467 (Molecular Cancer Therapeutics, 2024).

Biological target: CD22 on human lymphoma and leukemia cell lines (Homo sapiens (Human)., UniProt P20273)
Test: cell-based or functional assay

Sequence of CD22 on human lymphoma and leukemia cell lines (P20273 20-847): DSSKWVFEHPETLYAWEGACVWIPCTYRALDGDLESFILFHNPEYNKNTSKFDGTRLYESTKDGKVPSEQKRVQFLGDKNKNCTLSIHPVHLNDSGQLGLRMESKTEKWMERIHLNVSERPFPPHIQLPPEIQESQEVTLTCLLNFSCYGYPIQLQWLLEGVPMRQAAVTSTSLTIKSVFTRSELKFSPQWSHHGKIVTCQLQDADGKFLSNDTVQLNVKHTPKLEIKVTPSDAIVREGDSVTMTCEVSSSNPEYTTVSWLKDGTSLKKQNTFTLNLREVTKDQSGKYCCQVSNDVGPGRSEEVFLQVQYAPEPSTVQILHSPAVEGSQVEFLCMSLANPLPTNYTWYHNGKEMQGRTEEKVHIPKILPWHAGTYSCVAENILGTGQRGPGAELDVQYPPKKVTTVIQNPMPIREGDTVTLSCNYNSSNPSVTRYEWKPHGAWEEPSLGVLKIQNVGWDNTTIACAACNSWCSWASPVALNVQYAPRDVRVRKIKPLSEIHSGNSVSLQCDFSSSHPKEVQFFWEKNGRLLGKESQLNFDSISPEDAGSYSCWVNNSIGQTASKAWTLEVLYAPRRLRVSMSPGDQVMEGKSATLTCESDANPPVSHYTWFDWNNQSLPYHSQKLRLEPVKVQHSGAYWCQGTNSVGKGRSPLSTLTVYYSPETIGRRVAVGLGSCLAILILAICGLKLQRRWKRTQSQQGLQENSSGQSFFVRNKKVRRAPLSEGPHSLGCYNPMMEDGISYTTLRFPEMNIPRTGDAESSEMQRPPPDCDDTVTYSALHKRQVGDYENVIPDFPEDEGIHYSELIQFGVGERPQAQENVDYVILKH

B1: ADCT-602 (hLL2-C220 site-specifically conjugated to the PBD dimer payload tesirine, SG3249) (antibody, V domains shown)
VH: QVQLVQSGAEVKKPGSSVKVSCKASGYTFTSYWLHWVRQAPGQGLEWIGYINPRNDYTEYNQNFKDKATITADESTNTAYMELSSLRSEDTAFYFCARRDITTFYWGQGTLVTVSS
VL: DIQLTQSPSSLSASVGDRVTMSCKSSQSVLYSANHKNYLAWYQQKPGKAPKLLIYWASTRESGVPSRFSGSGSGTDFTFTISSLQPEDIATYYCHQYLSSWTFGQGTKVEIK
IC50 of in vitro cytotoxicity (MTS, 96 hours), DO HH-2 cells: 0.06 nM
IC50 of in vitro cytotoxicity (MTS, 96 hours), Daudi cells: 0.07 nM
IC50 of in vitro cytotoxicity (MTS, 96 hours), GRANTA-519 cells: 0.02 nM
IC50 of in vitro cytotoxicity (MTS, 96 hours), MEC-2 cells: 0.18 nM
IC50 of in vitro cytotoxicity (MTS, 96 hours), NALM-6 cells: 0.11 nM
IC50 of in vitro cytotoxicity (MTS, 96 hours), NAMALWA cells: 2.27 nM
IC50 of in vitro cytotoxicity (MTS, 96 hours), REH cells: 0.05 nM
IC50 of in vitro cytotoxicity (MTS, 96 hours), Ramos cells: 0.06 nM
